Values of other authors in article PMC12524998.

Molecular target: dysferlin (Homo sapiens) (UniProt O75923)
Assay: SPR

Sequence of UniProt O75923 (O75923 whole entry): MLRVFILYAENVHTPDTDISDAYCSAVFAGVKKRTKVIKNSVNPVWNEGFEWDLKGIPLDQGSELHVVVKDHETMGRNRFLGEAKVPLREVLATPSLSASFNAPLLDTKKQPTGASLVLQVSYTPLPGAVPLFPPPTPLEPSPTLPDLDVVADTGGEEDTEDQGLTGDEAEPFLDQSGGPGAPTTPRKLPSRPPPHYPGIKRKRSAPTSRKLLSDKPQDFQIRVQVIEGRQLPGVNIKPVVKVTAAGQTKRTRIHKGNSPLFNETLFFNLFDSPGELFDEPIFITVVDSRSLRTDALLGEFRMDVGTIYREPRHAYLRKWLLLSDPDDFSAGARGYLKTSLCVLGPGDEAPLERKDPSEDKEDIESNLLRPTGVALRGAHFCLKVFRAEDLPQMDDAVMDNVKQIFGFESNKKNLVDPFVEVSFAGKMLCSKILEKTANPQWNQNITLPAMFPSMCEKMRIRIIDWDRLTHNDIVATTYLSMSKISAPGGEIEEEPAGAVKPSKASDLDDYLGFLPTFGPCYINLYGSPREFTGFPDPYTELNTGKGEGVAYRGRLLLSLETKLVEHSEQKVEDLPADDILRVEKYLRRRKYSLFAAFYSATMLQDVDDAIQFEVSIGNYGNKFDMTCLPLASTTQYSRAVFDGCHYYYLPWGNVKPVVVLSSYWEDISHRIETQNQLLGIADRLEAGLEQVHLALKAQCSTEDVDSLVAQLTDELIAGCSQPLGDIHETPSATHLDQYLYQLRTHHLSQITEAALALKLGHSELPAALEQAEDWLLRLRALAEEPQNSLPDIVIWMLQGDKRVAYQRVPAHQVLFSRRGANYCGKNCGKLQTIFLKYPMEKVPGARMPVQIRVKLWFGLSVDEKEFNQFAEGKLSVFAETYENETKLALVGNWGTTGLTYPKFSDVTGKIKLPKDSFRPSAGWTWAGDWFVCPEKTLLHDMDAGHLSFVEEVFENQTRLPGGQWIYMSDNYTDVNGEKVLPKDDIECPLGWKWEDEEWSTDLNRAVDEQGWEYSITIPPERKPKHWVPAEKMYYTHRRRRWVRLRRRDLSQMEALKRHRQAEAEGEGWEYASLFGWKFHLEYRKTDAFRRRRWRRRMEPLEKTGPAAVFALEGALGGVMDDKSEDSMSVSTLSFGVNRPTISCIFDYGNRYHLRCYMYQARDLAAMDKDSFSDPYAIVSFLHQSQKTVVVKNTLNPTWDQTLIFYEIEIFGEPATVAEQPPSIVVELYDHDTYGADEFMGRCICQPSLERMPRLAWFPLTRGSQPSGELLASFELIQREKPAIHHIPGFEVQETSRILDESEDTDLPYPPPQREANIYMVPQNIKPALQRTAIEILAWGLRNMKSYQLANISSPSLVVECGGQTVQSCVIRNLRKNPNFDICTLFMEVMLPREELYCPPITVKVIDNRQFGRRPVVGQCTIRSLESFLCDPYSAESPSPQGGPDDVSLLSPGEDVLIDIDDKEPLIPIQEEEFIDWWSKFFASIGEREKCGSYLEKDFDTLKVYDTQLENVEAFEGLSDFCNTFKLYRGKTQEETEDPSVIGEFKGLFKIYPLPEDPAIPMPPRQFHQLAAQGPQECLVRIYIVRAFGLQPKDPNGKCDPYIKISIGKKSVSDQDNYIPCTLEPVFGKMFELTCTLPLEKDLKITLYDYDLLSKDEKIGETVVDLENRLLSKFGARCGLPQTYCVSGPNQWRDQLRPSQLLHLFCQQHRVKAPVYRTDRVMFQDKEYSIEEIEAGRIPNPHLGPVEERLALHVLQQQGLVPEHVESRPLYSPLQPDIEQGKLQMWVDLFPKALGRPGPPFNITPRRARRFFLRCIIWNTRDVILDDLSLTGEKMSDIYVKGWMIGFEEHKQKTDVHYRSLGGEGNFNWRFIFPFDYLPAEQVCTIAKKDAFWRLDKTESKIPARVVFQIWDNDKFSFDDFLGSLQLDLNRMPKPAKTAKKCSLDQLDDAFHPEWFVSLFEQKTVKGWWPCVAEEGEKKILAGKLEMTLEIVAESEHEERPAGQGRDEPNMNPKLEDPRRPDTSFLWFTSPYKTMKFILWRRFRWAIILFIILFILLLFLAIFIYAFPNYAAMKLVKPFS

## FKBP8 (from UniProt Q14318)
  Kd: 24 nM
